B1: ZC3H11A(wt)-HA [human] / PABPN1-Flag [not stated] (parent)
chain 1: MPNQGEDCYFFFYSTCTKGDSCPFRHCEAAIGNETVCTLWQEGRCFRQVCRFRHMEIDKKRSEIPCYWENQPTGCQKLNCAFHHNRGRYVDGLFLPPSKTVLPTVPESPEEEVKASQLSVQQNKLSVQSNPSPQLRSVMKVESSENVPSPTHPPVVINAADDDEDDDDQFSEEGDETKTPTLQPTPEVHNGLRVTSVRKPAVNIKQGECLNFGIKTLEEIKSKKMKEKSKKQGEGSSGVSSLLLHPEPVPGPEKENVRTVVRTVTLSTKQGEEPLVRLSLTERLGKRKFSAGGDSDPPLKRSLAQRLGKKVEAPETNIDKTPKKAQVSKSLKERLGMSADPDNEDATDKVNKVGEIHVKTLEEILLERASQKRGELQTKLKTEGPSKTDDSTSGARSSSTIRIKTFSEVLAEKKHRQQEAERQKSKKDTTCIKLKIDSEIKKTVVLPPIVASRGQSEEPAGKTKSMQEVHIKTLEEIKLEKALRVQQSSESSTSSPSQHEATPGARRLLRITKRTGMKEEKNLQEGNEVDSQSSIRTEAKEASGETTGVDITKIQVKRCETMREKHMQKQQEREKSVLTPLRGDVASCNTQVAEKPVLTAVPGITRHLTKRLPTKSSQKVEVETSGIGDSLLNVKCAAQTLEKRGKAKPKVNVKPSVVKVVSSPKLAPKRKAVEMHAAVIAAVKPLSSSSVLQEPPAKKAAVAVVPLVSEDKSVTVPEAENPRDSLVLPPTQSSSDSSPPEVSGPSSSQMSMKTRRLSSASTGKPPLSVEDDFEKLIWEISGGKLEAEIDLDPGKDEDDLLLELSEMIDS
chain 2: MAAAAAAAAAAGAAGGRGSGPGRRRHLVPGAGGEAGEGAPGGAGDYGNGLESEELEPEELLLEPEPEPEPEEEPPRPRAPPGAPGPGPGSGAPGSQEEEEEPGLVEGDPGDGAIEDPELEAIKARVREMEEEAEKLKELQNEVEKQMNMSPPPGNAGPVIMSIEEKMEADARSIYVGNVDYGATAEELEAHFHGCGSVNRVTILCDKFSGHPKGFAYIEFSDKESVRTSLALDESLFRGRQIKVIPKRTNRPGISTTDRGFPRARYRARTTNYNSSRSRFYSGFNSRPRGRVYRGRARATSWYSPY

Variants of: B1
Experiment: co-IP (PABPN1-Flag bait), Western blot quantification
Details: with PABPN1-Flag; three individual experiments; read off a plot
chain 1 C66A was tested, and the ratio to parent was 0.17. In the case of chain 1 C37A, the ratio to parent is reported as 0.57. Variant chain 1 C8A has a ratio to parent of 0.24.

Source: article PMC10371797
